How the values were obtained:
[1] = target: biotinylated CRH (human and mouse); test: competitive ELISA, coated 1st mAb; competitor PR004290
[2] = target: biotinylated CRH (human and mouse); test: Octet in-tandem, row = 1st mAb; competitor (2nd mAb) PR302341-34
[3] = target: biotinylated CRH (human and mouse); test: competitive ELISA, coated 1st mAb; competitor PR006152
[4] = target: biotinylated CRH (human and mouse); test: competitive ELISA, coated 1st mAb; competitor PR301777
[5] = target: biotinylated CRH (human and mouse); test: Octet in-tandem, row = 1st mAb; competitor (2nd mAb) PR005660
[6] = target: biotinylated CRH (human and mouse); test: competitive ELISA, coated 1st mAb; competitor PR005660
[7] = target: biotinylated CRH (human and mouse); test: competitive ELISA, coated 1st mAb; competitor hIgG1
[8] = target: biotinylated CRH (human and mouse); test: Octet in-tandem, row = 1st mAb; competitor (2nd mAb) PR301777
[9] = target: biotinylated CRH (human and mouse); test: competitive ELISA, coated 1st mAb; competitor PR302064
[10] = target: biotinylated CRH (human and mouse); test: Octet in-tandem, row = 1st mAb; competitor (2nd mAb) PR302309-8
[11] = target: biotinylated CRH (human and mouse); test: competitive ELISA, coated 1st mAb; competitor PR006148
[12] = target: biotinylated CRH (human and mouse); test: competitive ELISA, coated 1st mAb; competitor PR302069
[13] = target: biotinylated CRH (human and mouse); test: competitive ELISA, coated 1st mAb; competitor PR302055
[14] = target: biotinylated CRH (human and mouse); test: Octet in-tandem, row = 1st mAb; competitor (2nd mAb) PR302334
[15] = target: biotinylated CRH (human and mouse); test: Octet in-tandem, row = 1st mAb; competitor (2nd mAb) PR303394
[16] = target: biotinylated CRH (human and mouse); test: Octet in-tandem, row = 1st mAb; competitor (2nd mAb) PR006669
[17] = target: biotinylated CRH (human and mouse); test: competitive ELISA, coated 1st mAb; competitor PR302050

biotinylated CRH (human and mouse), sequence (peptide, as listed by the source): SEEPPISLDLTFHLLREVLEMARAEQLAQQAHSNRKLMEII

Question: What does the source list for hIgG1 (antibody)?
Answer: % Inhibition [1]: 0%; % Inhibition [2]: 12%; % Inhibition [3]: 0%; % Inhibition [4]: 0%; % Inhibition [5]: 12%; % Inhibition [6]: 0%; % Inhibition [7]: 0%; % Inhibition [8]: 9%; % Inhibition [9]: 0%; % Inhibition [10]: 15%; % Inhibition [11]: 0%; % Inhibition [12]: 0%; % Inhibition [13]: 0%; % Inhibition [14]: 8%; % Inhibition [15]: 10%; % Inhibition [16]: 9%; % Inhibition [17]: 0%
